Experimental data from the DeepSol protein solubility set.

Test: soluble on expression in E. coli; label from the status in PepcDB or PDB records

| Sequence | soluble on expression in E. coli |
| --- | --- |
| MSFDREEDQKLKFKTSKKLKVSSTFESMNLKDDLLRGIYSYGFEAPSSIQSRAITQIISGKDVIAQAQSGTGKTATFTIGLLQAIDLRKKDLQALILSPTRELASQIGQVVKNLGDYMNVNAFAITGGKTLKDDLKKMQKHGCQAVSGTPGRVLDMIKKQMLQTRNVQMLVLDEADELLSETLGFKQQIYDIFAKLPKNCQVVVVSATMNKDILEVTRKFMNDPVKILVKRDEISLEGIKQYVVNVDKEEWKFDTLCDIYDSLTITQCVIFCNTKKKVDWLSQRLIQSNFAVVSMHGDMKQEERDKVMNDFRTGHSRVLISTDVWARGIDVQQVSLVINYDLPEIIENYIHRIGRSGRFGRKGVAINFITKADLAKLREIEKFYSIKINPMPANFAELS | soluble |
| MSAKAISEQTGKELLYKFICTTSAIQNRFKYARVTPDTDWARLLQDHPWLLSQNLVVKPDQLIKRRGKLGLVGVNLTLDGVKSWLKPRLGQEATVGKATGFLKNFLIEPFVPHSQAEEFYVCIYATREGDYVLFHHEGGVDVGDVDAKAQKLLVGVDEKLNPEDIKKHLLVHAPEDKKEILASFISGLFNFYEDLYFTYLEINPLVVTKDGVYVLDLAAKVDATADYICKVKWGDIEFPPPFGREAYPEEAYIADLDAKSGASLKLTLLNPKGRIWTMVAGGGASVVYSDTICDLGGVNELANYGEYSGAPSEQQTYDYAKTILSLMTREKHPDGKILIIGGSIANFTNVAATFKGIVRAIRDYQGPLKEHEVTIFVRRGGPNYQEGLRVMGEVGKTTGIPIHVFGTETHMTAIVGMALGHRPIP | soluble |
| GPGSMALPRLQMFALASRIEELVLDSVTVHPHSVVAIGNAERQGNGQPPPPSNWVPLSDLASLQKLRRLDMTNCKGDFDCAGIARCCFLRSVHLSGCNVKDADVPHLAQLPCVEELLLSRTRITNVQALAAGKGLRIIQLSNAQVDSDGIDGLQTLPYLTRLDLSSTLVSDVNCLGQSQSLIYLNLAKTHVTSEGIAGLSRLLTLEHLMLNNNNIRDVSFLAESHSLKTLSLQSTLVDSAGLEGLGRLRTLQDLSLAHTRVTNVTKLQHCRNLWRLDLQGSFVDQAGIVGLERLPKLRVLVLSKTDVASLELILKSESLEQLEVKFSHVNERSAFFGVTKASALTDVTLTHCDVSDINNLGMCKELRLLNVWSSKVTSEGIAGLCDARSLQEVDLAETAVTDISPLLSCTKIQALILYRSSVRSLDGIGALQQLRRLDIAETSVSSIRSLSACQRLEILNLSNTAVDDDGFQGIGQAQSLKVVSMSFTAITQVGQLGQCSHLEELHAQSCPVTSEGLVGLERACCLVKLNLSYTKLQSGIQRLTNCRKLLKLNVKFTEVPYDEVAYVKRHLPSCRVMNDAAQRMAKDVTLLT | not soluble |
| MDTQDPLSQKYAISMLFFLLDRGNVKQFELLKIISSNMTIEKLSKILEEAGLINIKREFTGRKSYSFSLTPKGRLVAEQLKKAEEIAQKPSAEIEESVEKIELLLANEEAERIREWSFLLHINIMDDHITEEISGKSPRFFNIYIKRNGNGEFLLWCEQDNSYDCWHVKAAWTYPEVQKMMMHYKGKVKICHICGYENAEEGKFCTNCGTKLE | not soluble |
| GMSKLSLIQQLKQQKLSVGILSANWLQLNEEVTTLLENQINVLHFDIADGQFSSLFTVGAIGIKYFPTHCFKDVHLMVRNQLEVAKAVVANGANLVTLQLEQYHDFALTIEWLAKQKTTYANQVYPVLIGACLCPETPISELEPYLDQIDVIQLLTLDPRNGTKYPSELILDRVIQVEKRLGNRRVEKLINIDGSMTLELAKYFKQGTHQIDWLVSGSALFSGELKTNLKVWKSSIM | soluble |
| MDFASSDGGGRTTTSAKIVVAGGFGVGKTTFVGAVSEINPLRTEAVMTSASAGIDDLTHTGDKTTTTVAMDFGRITLDQDLILYLFGTPGQDRFWFMWDDLVRGAIGAVVLVDTRRLADCFPAVDYFENSGLPFVIALNGFDGHQPYNPEEVREALQIGPDAPIITTDARHRADAKSALITLVEHALMARLRLEHHHHHH | not soluble |
| THSQLDQLLTGLVDRVAEVDHAVVLSEDGLVVSKSTGFLRDDAERLAATASGLMSLSKGVSMDFRRGPVRQALIEMGKGYLILTAAGPGAHLVVLTRQGADVGVVAYQMNMLVKKIGEHLSAPPRG | soluble |
| GQPMNVTLQDDTQTLQEVVVTALGMKRATKALGYAVTEIKSDELNSNVVNPVSALQGKVAGVEISAGDGGLFGSSKILIRGASTLGSNNQPIYVVDGVILDNAIKNGDADWAANDTDWGNELKNLNPDDFESVSVLKGAAATALYGSRGLNGAVVITTKSGKGKK | not soluble |
| AMGSATISRRGILVIRHGERVDQVFGKSWLQQCTTADGKYYRPDLNFPRSLPRRSNGIKDFENDPPLSSCGIFQARLAGEALLDSGVRVTAVFASPALRCVQTAKHILEELKLEKKLKIRVEPGIFEWMKWEASKATLTFLTLEELKEANFNVDLDYRPALPRCSLMPAESYDQYVERCAVSMGQIINTCPQDMGITLIVSHSSALDSCTRPLLGLPPRECGDFAQLVRKIPSLGMCFCEENREDGKWDLVNPPVKTLTHGANSVFNWRNWIS | soluble |
| MSQSDLVTIKNLRFSRSQRVIFDDIDLHVPKGKVTAIMGPSGIGKTTLLRLIGGQLLPEQGEIWFDGENIPTLSRRKLYRARKKMSMLFQSGALFTDLNVFDNVAYPLREHTELDEAMIKTLVLLKLEAVGLRGAAYLMPSELSGGMARRAALARAIALDPELIMYDEPFVGQDPITMGVLVELIRNLNRALGVTSVVVSHDVPEVMSIADWVYLLADGKVIAQGSPQALRDNPDPRVQQFLCGDADGPVPFRFPAQPIEQELFSAK | not soluble |
| MEIIRPMRVAIVAESFLPNVNGVTNSVLRVLEHLKANGHDALVIAPGARDFEEEIGHYLGFEIVRVPTVRVPLIDSLPIGVPLPSVTSVLREYNPDIIHLASPFVLGGAAAFAARQLRIPAIAIYQTDVAGFSQRYHLAPLATASWEWIKTVHNMCQRTLAPSSMSIDELRDHGINDIFHWARGVDSKRFHPGKRSVALRKSWDPSGAKKIVGFVGRLASEKGVECLAGLSGRSDIQLVIVGDGPEAKYLQEMMPDAIFTGALGGEELATTYASLDLFVHPGEFETFCQAIQEAQASGVPTIGPRAGGPIDLINEGVNGLLLDVVDFKETLPAAAEWILDDSRHSEMCAAAWEGVKDKTWEALCTQLLQHYADVIALSQRIPLTFFGPSAEVAKLPLWVARALGVRTRISIEALEHHHHHH | soluble |
| VPYKGYLIDLDGTIYQGKNRIPAGERFIKRLQERGIPYLLVTNNTTRTPEMVQSMLANQFHVETSIETIYTATMATVDYMNDMNRGKTAYVIGETGLKSAIAAAGYVEELENPAYVVVGLDSQVTYEMLAIATLAIQKGALFIGTNPDLNIPTERGLMPGAGALNALLEAATRVKPVFIGKPNAIIMNKSLEVLGIQRSEAVMVGDNYLTDIMAGIQNDIATILVTTGFTRPEEVPTLPIQPDHVLSSLDEWRL | soluble |
| MAPQPFDIDTPSLRVFLPAPELATGRAIVACPGGGYGGLAVNHEGYDWAPYFNKQGIALIVLKYRMPHGDRTLPISDAEAAMKMARDSADVWNLNPYDIGIMGSSAGGHLASTIATHTRPELRPNFQILFYPVITMDKSYTHIGSHDNLLGKDAFAELETEFSNEKQVTKETPRAFIAYSDDDKTVPPANGVNYYLGLHKNHVPAVLHIYASGGHGWGIRENFIYLEHHHHHH | not soluble |
| TTILVVRRNGQTVMGGDGQVTFGSTVLKGNARKVRKLGEGKVLAGFAGSVADAMTLFDRFEAKLREWGGNLTKAAVELAKDWRTDRVLRRLEALLLVADKENIFIISGNGEVIQPDDDAAAIGSGGPYALAAAKALLRNTDLSAREIVEKAMTIAGEICIYTNQNIVIEEV | soluble |
| MNEKKERIIKTSIRLFAKKGFAATTIQEIASECGISKGAFYLHFKSKEALLLSACEYYIGMSMNKMKNIEEDLAGKPPKEVLKKQIGAQFEDFRDHKDFIVLLLTENIIPENQEIKQYFYKVTMETDKLYRNALLVSYGEGIERYVADLSIMARGIVHSYMNVMVFNGELNIDAEEISAFIIERLDDLVQGLSRSALNPIVSKDIFNPMPAGKDQLLEDIQKVKENSTLPEDITVSLDVIEEELTQDKPRKPIIKGMLSNLAGTNDKEVERLRALILSLSQFDHKKSSL | not soluble |
